Experimental data taken from publication PMC7337323 (Nature structural & molecular biology, 2020).

B1: wild-type H. neapolitanus Rubisco (CbbL8S8) (complex, Halothiobacillus neapolitanus)
chain 1: MAVKKYSAGVKEYRQTYWMPEYTPLDSDILACFKITPQPGVDREEAAAAVAAESSTGTWTTVWTDLLTDMDYYKGRAYRIEDVPGDDAAFYAFIAYPIDLFEEGSVVNVFTSLVGNVFGFKAVRGLRLEDVRFPLAYVKTCGGPPHGIQVERDKMNKYGRPLLGCTIKPKLGLSAKNYGRAVYECLRGGLDFTKDDENINSQPFMRWRDRFLFVQDATETAEAQTGERKGHYLNVTAPTPEEMYKRAEFAKEIGAPIIMHDYITGGFTANTGLAKWCQDNGVLLHIHRAMHAVIDRNPNHGIHFRVLTKILRLSGGDHLHTGTVVGKLEGDRASTLGWIDLLRESFIPEDRSRGIFFDQDWGSMPGVFAVASGGIHVWHMPALVNIFGDDSVLQFGGGTLGHPWGNAAGAAANRVALEACVEARNQGRDIEKEGKEILTAAAQHSPELKIAMETWKEIKFEFDTVDKLDTQNR
chain 2: MAEMQDYKQSLKYETFSYLPPMNAERIRAQIKYAIAQGWSPGIEHVEVKNSMNQYWYMWKLPFFGEQNVDNVLAEIEACRSAYPTHQVKLVAYDNYAQSLGLAFVVYRGN

How the values were obtained:
[1] = target: N*-polyPro (N* consensus peptide on a polyproline II helix); test: BLI
[2] = target: T1, full-length CsoS2 (H. neapolitanus) (Halothiobacillus neapolitanus, UniProt O85041 1-869); test: native gel or EMSA
T1 sequence (looked up): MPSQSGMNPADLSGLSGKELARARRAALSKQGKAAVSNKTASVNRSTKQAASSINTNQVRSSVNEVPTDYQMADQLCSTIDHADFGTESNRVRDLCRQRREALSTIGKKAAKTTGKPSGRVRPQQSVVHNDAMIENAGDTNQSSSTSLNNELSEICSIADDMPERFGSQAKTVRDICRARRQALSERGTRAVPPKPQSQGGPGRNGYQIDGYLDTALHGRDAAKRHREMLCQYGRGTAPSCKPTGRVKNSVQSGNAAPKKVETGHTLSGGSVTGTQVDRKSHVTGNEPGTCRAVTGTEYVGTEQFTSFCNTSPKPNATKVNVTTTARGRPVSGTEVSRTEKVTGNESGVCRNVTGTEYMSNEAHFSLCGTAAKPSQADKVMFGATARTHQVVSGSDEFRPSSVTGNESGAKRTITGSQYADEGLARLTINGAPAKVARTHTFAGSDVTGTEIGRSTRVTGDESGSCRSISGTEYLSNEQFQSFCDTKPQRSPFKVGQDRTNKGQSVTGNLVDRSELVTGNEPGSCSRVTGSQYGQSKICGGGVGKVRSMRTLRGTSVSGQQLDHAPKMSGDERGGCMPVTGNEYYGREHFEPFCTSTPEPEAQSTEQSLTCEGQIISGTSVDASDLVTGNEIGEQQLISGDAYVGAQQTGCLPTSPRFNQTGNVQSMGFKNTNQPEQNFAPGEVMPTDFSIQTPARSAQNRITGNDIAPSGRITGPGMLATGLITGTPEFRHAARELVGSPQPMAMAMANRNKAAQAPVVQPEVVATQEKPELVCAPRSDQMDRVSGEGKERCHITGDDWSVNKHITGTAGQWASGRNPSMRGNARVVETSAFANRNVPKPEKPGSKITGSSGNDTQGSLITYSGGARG

[3] = target: the molecule itself; test: crystal structure
[4] = target: B1; test: MST

“wild-type H. neapolitanus Rubisco (CbbL8S8) (from UniProt O85040 1-473; P45686 1-110) (complex)” was tested, and the Kd [1] was 0.1 µM.

B1: binds [2].

B2: CbbL (Rubisco large subunit, H. neapolitanus) (natural protein, Halothiobacillus neapolitanus)
chain: MAVKKYSAGVKEYRQTYWMPEYTPLDSDILACFKITPQPGVDREEAAAAVAAESSTGTWTTVWTDLLTDMDYYKGRAYRIEDVPGDDAAFYAFIAYPIDLFEEGSVVNVFTSLVGNVFGFKAVRGLRLEDVRFPLAYVKTCGGPPHGIQVERDKMNKYGRPLLGCTIKPKLGLSAKNYGRAVYECLRGGLDFTKDDENINSQPFMRWRDRFLFVQDATETAEAQTGERKGHYLNVTAPTPEEMYKRAEFAKEIGAPIIMHDYITGGFTANTGLAKWCQDNGVLLHIHRAMHAVIDRNPNHGIHFRVLTKILRLSGGDHLHTGTVVGKLEGDRASTLGWIDLLRESFIPEDRSRGIFFDQDWGSMPGVFAVASGGIHVWHMPALVNIFGDDSVLQFGGGTLGHPWGNAAGAAANRVALEACVEARNQGRDIEKEGKEILTAAAQHSPELKIAMETWKEIKFEFDTVDKLDTQNR
B2: binds [3].

B3: [N1]-GFP (single CsoS2 N-peptide repeat N1 fused to GFP) (domain or fragment)
chain: PSQSGMNPADLSGLSGKELARARRAALSKQGKAAVSNKTASVNRSTKQAASSINTNQVRSSVNEVPTDYQMADQLCSTIDHADFGTESNRV
modifications: CsoS2 part of Supplementary Table 1 construct; His tag, TEV site, linker, sfGFP and StrepII left out
Work on B3 yielded a Kd [4] of over 1000 µM.
